Laboratory results as given in the RNAGym collection of RNA variant scans (doi:10.7554/elife.80360).

B1: Twister Ribozyme (parent)
chain: AACACUGCCAAUGCCGGUCCCAAGCCCGGAUAAAAGUGGAGGGGGCGG

Variants of: B1
Test: self-cleavage, relative activity (ratio to wild type); higher = more cleavage; co-transcriptional
For G28C A30G, the self-cleavage was 0.77. Work on G28C A30C yielded a self-cleavage of 0.848. C27U A35C showed a self-cleavage of 0.641. For G29C A40G, the self-cleavage was 0.157. Variant G29A A40G has a self-cleavage of 0.146. In the case of G29A A40U, the self-cleavage is reported as 0.204. For G29A A40C, the self-cleavage was 0.176. For C27U A33U, the self-cleavage was 0.709. C27U A33G gave a self-cleavage of 0.702. With G28A G44C the self-cleavage was 0.718. For G28A G44A, the self-cleavage was 0.702. For C27G G48U, the self-cleavage was 0.0985. Variant G28C G38A has a self-cleavage of 0.743. Work on G29U U37A yielded a self-cleavage of 0.512. G29U U37C gave a self-cleavage of 0.444. C27G G36A showed a self-cleavage of 0.0994. In the case of C27G G36U, the self-cleavage is reported as 0.0875. With G29C G48U the self-cleavage was 0.642. For C27A G38A, the self-cleavage was 0.241. For C27A G38C, the self-cleavage was 0.573. C27A G38U showed a self-cleavage of 0.33. A30G U37A showed a self-cleavage of 0.901. For A30G A34U, the self-cleavage was 0.86. A30G A34G gave a self-cleavage of 0.761. Variant A30G A34C has a self-cleavage of 0.497. G28U G41C showed a self-cleavage of 0.263. Work on G28U G41A yielded a self-cleavage of 0.459. G29U G39A showed a self-cleavage of 0.417. In the case of G29U G39U, the self-cleavage is reported as 0.223. For G29U G39C, the self-cleavage was 0.116. With G28A G39U the self-cleavage was 0.16. With G29U A33G the self-cleavage was 0.747. With G29C A33C the self-cleavage was 0.545. In the case of G29U G43C, the self-cleavage is reported as 0.19. For G29U G43A, the self-cleavage was 0.23. Work on C27G G29U yielded a self-cleavage of 0.0759. G28A G29A gave a self-cleavage of 0.898. G28A A35U showed a self-cleavage of 0.847. G28A A35C showed a self-cleavage of 0.793. C27A G41A showed a self-cleavage of 0.119. For G28C G48A, the self-cleavage was 0.405. In the case of A30C G44U, the self-cleavage is reported as 0.793. For A30C G44C, the self-cleavage was 0.874. Variant G29A A32U has a self-cleavage of 0.949. Variant G29A A32C has a self-cleavage of 0.916. For C27U A34G, the self-cleavage was 0.483. In the case of G28A G48A, the self-cleavage is reported as 0.775. G29A G36A showed a self-cleavage of 0.458. With G29A G36C the self-cleavage was 0.246. Work on C27A G47A yielded a self-cleavage of 0.238. For C27A G47U, the self-cleavage was 0.186. In the case of G28U A32C, the self-cleavage is reported as 0.716. With G28U A32U the self-cleavage was 0.873. In the case of G28U A32G, the self-cleavage is reported as 0.777. Variant A30C G42C has a self-cleavage of 0.111. For G29U G36C, the self-cleavage was 0.319. Variant G29U G36U has a self-cleavage of 0.212. With G28U A34U the self-cleavage was 0.585. Variant G28U A34C has a self-cleavage of 0.205. Variant G28A G45U has a self-cleavage of 0.375. G28A G45A gave a self-cleavage of 0.653. G28A G45C showed a self-cleavage of 0.185. A30G G44C showed a self-cleavage of 1.02. Work on A30G G44U yielded a self-cleavage of 0.887. Variant C27G C46A has a self-cleavage of 0.0878. C27G C46U showed a self-cleavage of 0.105. Variant G29C A32U has a self-cleavage of 0.443. For C27A G28A, the self-cleavage was 0.423. For C27G G39U, the self-cleavage was 0.123. C27G G39A gave a self-cleavage of 0.0704. For C27G A33G, the self-cleavage was 0.139. Work on A30G G41C yielded a self-cleavage of 0.37. With C27G U37C the self-cleavage was 0.102. C27G U37G gave a self-cleavage of 0.0978. For A30C A34U, the self-cleavage was 0.314. A30C A34C gave a self-cleavage of 0.0893. A30G G38C showed a self-cleavage of 0.868. Variant A30G G38A has a self-cleavage of 0.853. Work on G29U C46G yielded a self-cleavage of 0.88. G29U C46U showed a self-cleavage of 0.901. Work on A30G G45C yielded a self-cleavage of 0.571. G28U U31G gave a self-cleavage of 0.992. Work on G28U G43U yielded a self-cleavage of 0.285. G28U G43A gave a self-cleavage of 0.221. For G28U G43C, the self-cleavage was 0.151. C27U C46A gave a self-cleavage of 0.825. In the case of C27A G44C, the self-cleavage is reported as 0.298. For C27A G44A, the self-cleavage was 0.648. In the case of C27A G44U, the self-cleavage is reported as 0.41. With A30G G43U the self-cleavage was 0.498. G28A C46A gave a self-cleavage of 0.682. G28A C46G showed a self-cleavage of 0.864. Work on C27U G28C yielded a self-cleavage of 0.568. For C27U G28U, the self-cleavage was 0.501. G28C A34G gave a self-cleavage of 0.491. Work on G28C A34C yielded a self-cleavage of 0.154. With G28A A34C the self-cleavage was 0.175. G28A A34G showed a self-cleavage of 0.606. G28C G43U gave a self-cleavage of 0.17. Work on A30C A35U yielded a self-cleavage of 0.912. Work on G28U G39U yielded a self-cleavage of 0.177. C27U U37A showed a self-cleavage of 0.444. Work on G28U G29C yielded a self-cleavage of 0.928. G28U G29A showed a self-cleavage of 0.947. For C27G G44U, the self-cleavage was 0.0884. Work on C27G G44C yielded a self-cleavage of 0.133. Work on G28U A33C yielded a self-cleavage of 0.838. Work on G28U A33G yielded a self-cleavage of 0.979. For G28U A33U, the self-cleavage was 0.833. In the case of G29A U37G, the self-cleavage is reported as 0.395. G29A U37A showed a self-cleavage of 0.569. With C27A G45A the self-cleavage was 0.334. C27A G45U gave a self-cleavage of 0.207. Variant C27U A30C has a self-cleavage of 0.701. Variant G28C A33C has a self-cleavage of 0.745. Variant G28C A33G has a self-cleavage of 0.83. Work on G29U G38U yielded a self-cleavage of 0.666. Work on G29A C46A yielded a self-cleavage of 0.922. Variant G29A C46U has a self-cleavage of 0.948. G28U G38C showed a self-cleavage of 0.676. Variant G28U G38A has a self-cleavage of 0.763. A30C G39C showed a self-cleavage of 0.107. Work on A30C G39U yielded a self-cleavage of 0.106. Variant C27A A40U has a self-cleavage of 0.142. For C27A A40G, the self-cleavage was 0.145. Work on G28U G47A yielded a self-cleavage of 0.374. For G28U G47U, the self-cleavage was 0.567. With G28A U31C the self-cleavage was 0.835. With G28U G42A the self-cleavage was 0.26. G29A A34G gave a self-cleavage of 0.684. A30G U31A showed a self-cleavage of 0.744. Work on A30G U31G yielded a self-cleavage of 1.02. With C27U G36C the self-cleavage was 0.21. C27U G36A showed a self-cleavage of 0.583. For C27U G36U, the self-cleavage was 0.158. G29A A35G gave a self-cleavage of 0.657. For G29C G44U, the self-cleavage was 0.777. With G29U U31C the self-cleavage was 0.972. For G29U U31G, the self-cleavage was 0.92. G28U A35U showed a self-cleavage of 0.888. In the case of G28U A35G, the self-cleavage is reported as 0.584. With G28A G36C the self-cleavage was 0.131. With C27A G39U the self-cleavage was 0.0773. Variant C27A G39A has a self-cleavage of 0.128. G29A G48A gave a self-cleavage of 0.874. In the case of G29U G44U, the self-cleavage is reported as 0.837. With G29A G41U the self-cleavage was 0.461. In the case of C27U G48U, the self-cleavage is reported as 0.942. For C27U G48A, the self-cleavage was 0.633. For G29A G45C, the self-cleavage was 0.249. For C27G G28A, the self-cleavage was 0.0984. For C27G G28C, the self-cleavage was 0.216. With C27G G28U the self-cleavage was 0.0803. G28C U31A gave a self-cleavage of 0.814. G28C U31C gave a self-cleavage of 0.938. Variant G28C U31G has a self-cleavage of 0.739. With G28A G42U the self-cleavage was 0.261. G28A U37C showed a self-cleavage of 0.391. For G28A U37G, the self-cleavage was 0.331. Work on G28C G44A yielded a self-cleavage of 0.782. A30C G38C gave a self-cleavage of 0.732. For G29C G41C, the self-cleavage was 0.0927. G28C G36A showed a self-cleavage of 0.292. In the case of G28C G36C, the self-cleavage is reported as 0.173. Work on A30G G47A yielded a self-cleavage of 0.817. In the case of A30G G47U, the self-cleavage is reported as 0.877. A30C G48A showed a self-cleavage of 0.576.
